Data: US11939377B2, “Affinity matured CD22-specific monoclonal antibody and uses thereof” (The U.S.A., as represented by the Secretary, Department of …, priority 2018, dated 2024)

Key:
[1] = system: CD22 expression on ALL and DLBCL cell lines (Nalm6, Kopn8, SEM, Pfeiffer, Toledo, PDX); test: CD22 expression on leukemia/lymphoma cells by flow cytometry after drug exposure in vitro; type: cell-based, human; details: Enzastaurin 10 μM, Staurosporine 100 μM, 24 hours
Experimental: FIGS. 3A-3D: (FIG. 3A) Four cell lines (Nalm6, Kopn8, Pfieffer and Toldeo) were co-incubated with 1 ng/ml Bryostatin 1 for 24 hours and analyzed using flow cytometry one day after Bryostatin 1 exposure. Site density was analyzed using standardized Quantibrite-PE beads. (FIG. 3B) Cell lines were co-incubated with 1 ng/ml Bryostatin 1 for 24 hours, washed, and analyzed using flow cytometry at 1 and 7 days after Bryostatin 1 exposure. Fold change was calculated based on site density: (Cell line Bryostatin 1—Cell line DMSO)/Cell line DMSO. (FIG. 3C) NSG mice were injected with 1×10^6 GPF-positive Nalm6 leukemia cells on Day 0. Bryostatin 1 was administered at 0.8 μg/kg on Day 3. Mice were sacrificed 7 and 12 days after Bryostatin 1 injection and CD22 was evaluated by flow cytometry. (FIG. 3D) CD22-low relapse PDX cell line was cultured in vitro with 1 nmol/L Bryostatin 1 for 24 hours and measured for CD22 expression using CD22 antibody.
FIGS. 10A-10E: (FIG. 10A) Three cell lines (Toldeo, Kopn8 and Nalm6) were co-incubated with Bryostatin 1 at varying concentrations for 24 hours. At 24 hours, cells were collected for protein kinase C (PKC)-βII isoform analysis by western blot. (FIG. 10B) KOPN8 or SEM cell lines were exposed to Bryostatin 1 for 16, 24, 48 or 72 hours. RNA was extracted from cells and analyzed using RNAseq. (FIG. 10C) Immunofluorescent staining of CD22 was conducted through permeabilization followed by staining of CD22. (FIG. 10D) Four cell lines were co-incubated with various combinations of Enzastaurin (10 μM), Staurosporine (100 μM), or Bryostatin 1 (1 nM) for 24 hours. CD22 expression was assessed using flow cytometry. MFI fold change=CD22 MFI^Bryostatin1/CD22 MFI^DMSO. (FIG. 10E) Cell lines were co-incubated with 1 nM Bryostatin 1 for 24 hours and measured for CD22 expression using CD22-PE antibody. MFI fold change=CD22 MFI^Bryostatin 1/CD22 MFI^DMSO.
FIG. 11: CD22^lo or parental Nalm6 cell lines were exposed to 1 ng/ml Bryostatin 1 for 24 hours. CD22 expression was assessed using flow cytometry.
For all in vitro experiments and tumor/CAR pretreatment prior to intravenous injection, Bryostatin 1 was administered to cells at a concentration of 1 ng/mL. Dimethyl sulfoxide (DMSO) vehicle control was administered to control-treated cells at an equal volume. Prior to co-culture or intravenous injection, Bryostatin 1- and DMSO-treated cells were washed 3x in sterile PBS. For all in vivo experiments, Bryostatin 1 was diluted in PBS and administered via intraperitoneal injection at a dose of 40 μg/kg (1 μg/25 g mouse). For control-treated groups, an equal volume of DMSO was diluted in PBS and administered in the same manner
FACS analysis of cell surface CAR and protein expression was performed using an LSR II Fortessa flow cytometer (BD Biosciences). CD22-CAR was detected by incubation with 22-Fc (R&D Systems), followed by incubation with human IgG-specific PE-F(ab)2 (Thermo Fisher Scientific). The following human monoclonal antibodies were used for detection of cell surface proteins: CD22-APC, CD22-PE, CD19-Pacific Blue, CD45-PerCP/Cy5.5, CD3-APC/Cy7, PD1-PE/Cy7, LAG3-APC, TIM3-Pacific Blue, CD8-APC, CD8-PE/Cy7, CD45RA-APC, CD45RO-PE/Cy7, CCR7-Pacific Blue, CD4-Pacific Blue, CD69-APC (all from BioLegend). CD22 site density was determined using QuantiBrite-PE beads (BD Biosciences) using methods previously described (Jasper et al., Cytometry B Clin Cytom 80(2):83-90, 2011). Dead cells were identified using eFluor 506 fixable viability dye (Thermo Fisher Scientific). GFP-expressing leukemia cells were identified through the FITC channel.

[2] = molecular target: CD22 extracellular domain (ECD) (Homo sapiens, UniProt P20273); test: BIAcore surface plasmon resonance of scFv binding to immobilized CD22 ECD-Fc
Experimental: FIGS. 13A-13F: (FIG. 13A) BIAcore analysis was used to evaluate association and dissociation curves of various scFvs. […] (FIG. 13B) CD22^V1 or CD22 CART were co-cultured with CD22^neg or CD22^lo leukemia and evaluated at 24 hours for PD1 expression through flow cytometry on a Fortessa flow machine. (FIGS. 13C-13F) Mice were injected with CD22^lo or Nalm6 leukemia on Day 0. […] Bone marrow cells were stained for flow cytometry and analyzed on Fortessa flow machine. Statistics were calculated using unpaired t-test (** p<0.0021).
Purified CD22 ECD-Fc fusion protein was diluted in 10 mM acetic acid buffer, pH 5.0, immobilized on a CMS biosensor chip for 1400 RU using an amine coupling kit. The running buffer was HBS-EP (10 mM HEPES, pH 7.4, 150 mM NaCl, 3 mM EDTA, 0.05% surfactant P20). The scFvs diluted in running buffer were allowed to flow through the cells at concentrations 0.32, 1.6, 8, 40 and 200 nM. After a 10-minute of dissociation, the chip was regenerated with 10 mM acetic acid, pH 4.0, 0.5 M NaCl. The data were fitted with 1:1 binding model and the dissociation rate constant was estimated with the BIAevaluation software.

| Molecule | upregulation of CD22 [1] | affinity relative to original scFv m971 ([2]; as measured by BIAcore) | Kd ([2]; scFv, bound from instrument limit kd) [nM] | Kd ([2]; scFv, bound from instrument limit kd 1.0×10^−5 / 5.6×10^5) [nM] | calculated dissociation rate constant kd ([2]; scFv, lower than the kd measurable by BIAcore X-100 (1.0×10^−5 l/s)) [L/s] |
| --- | --- | --- | --- | --- | --- |
| Cn1cc(C2=C(c3cn(C4CCN(Cc5ccccn5)CC4)c4ccccc34)C(=O)NC2=O)c2ccccc21 [Enzastaurin] | neither the PKCβII inhibitor, Enzastaurin, nor a broad PKC inhibitor, Staurosporine, was able to upregulate CD22 |  |  |  |  |
| CN[C@@H]1C[C@H]2O[C@@](C)([C@@H]1OC)n1c3ccccc3c3c4c(c5c6ccccc6n2c5c31)C(=O)NC4 [Staurosporine] | neither the PKCβII inhibitor, Enzastaurin, nor a broad PKC inhibitor, Staurosporine, was able to upregulate CD22 |  |  |  |  |
| m971-L7: affinity matured human monoclonal antibody specific for CD22; VH SEQ ID NO: 4, VL SEQ ID NO: 5, scFv SEQ ID NO: 6 (antibody, V domains shown) VH: QVQLQQSGPGMVKPSQTLSLTCAISGDSVSSNSVAWNWIRQSPSRGLEWLGRTYYRSTWYNDYAVSMKSRITINPDTNKNQFSLQLNSVTPEDTAVYYCAREVTGDLEDAFDIWGQGTMVTVSS VL: DIQMIQSPSSLSASVGDRVTITCRASQTIWSYLNWYRQRPGEAPNLLIYAASSLQSGVPSRFSGRGSGTDFTLTISSLQAEDFATYYCQQSYSIPQTFGQGTKLEIK |  | more than 1000 fold | < 0.018 | < 0.018 | 1.1e-06 |
